Results taken from patent US20170008959A1 (AbbVie / Abbott, published 2017).
No end group written: not given here.

T1: AP-Nogo66 (Nogo-66 with an N-terminal alkaline phosphatase tag) (human, UniProt Q9NQC3 1055-1120)
T1 construct: range 1055-1120; Migrates as a dimer of about 140 kDa in gel chromatography; the AP tag induces the dimerization; also called NgR ligand AP-Nogo-66; not shown: alkaline phosphatase tag encoded by vector pAP-tag5
T1 sequence (looked up): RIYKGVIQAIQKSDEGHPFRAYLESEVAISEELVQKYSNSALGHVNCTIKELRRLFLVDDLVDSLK

B1: AlterCharge1 (peptide)
peptide: FSRIRATHWRVDG
modifications: also: biotinylated, position not given here
notes: Control 13mer with four positive charges
B2: AGER-CDP peptide 7 (peptide)
peptide: LPRHRALRTAPIQPRVWEPVPLEEVQLVVE
notes: Synthetic 30mer
B3: AGER-CDP peptide 6 (peptide)
peptide: TLQSELMVTPARGGDPRPTFSCSFSPGLPR
notes: Synthetic 30mer
B4: sRAGE 1-331 (recombinant human sRAGE protein) (receptor)
chain: AQNITARIGEPLVLKCKGAPKKPPQRLEWKLNTGRTEAWKVLSPQGGGPWDSVARVLPNGSLFLPAVGIQDEGIFRCQAMNRNGKETKSNYRVRVYQIPGKPEIVDSASELTAGVPNKVGTCVSEGSYPAGTLSWHLDGKPLVPNEKGVSVKEQTRRHPETGLFTLQSELMVTPARGGDPRPTFSCSFSPGLPRHRALRTAPIQPRVWEPVPLEEVQLVVEPEGGAVAPGGTVTLTCEVPAQPSPQIHWMKDGVPLPLPPSPVLILPEIGPQDQGTYSCVATHSSHGPQESRAVSISIIEPGEEGPTAGGTKLGPEQKLISEEDLNSAVDHHHHHH
notes: His-tagged, from HEK 293 line 293/6.1 sRAGE His 6 (vector pcDNA3.1(-) Myc HIS); also called sRAGE-HIS
B5: N-terminally truncated sRAGE (sRAGE 102-331) (receptor)
chain: MNRNGKETKSNYRVRVYQIPGKPEIVDSASELTAGVPNKVGTCVSEGSYPAGTLSWHLDGKPLVPNEKGVSVKEQTRRHPETGLFTLQSELMVTPARGGDPRPTFSCSFSPGLPRHRALRTAPIQPRVWEPVPLEEVQLVVEPEGGAVAPGGTVTLTCEVPAQPSPQIHWMKDGVPLPLPPSPVLILPEIGPQDQGTYSCVATHSSHGPQESRAVSISIIEPGEEGPTAGARGGPEQKLISEEDLNSAVDHHHHHH
notes: His-tagged, expressed from psecTAG 2A; no longer has a functional V domain
B6: NtermR13 (peptide)
peptide: CKGAPKKPPQRLE
modifications: also: biotinylated, position not given here (AlphaScreen assays only)
notes: also called Nterm 13
B7: His-NogoR fusion protein (receptor, human, UniProt Q9BZR6 27-447, looked up)
chain: CPGACVCYNEPKVTTSCPQQGLQAVPVGIPAASQRIFLHGNRISHVPAASFRACRNLTILWLHSNVLARIDAAAFTGLALLEQLDLSDNAQLRSVDPATFHGLGRLHTLHLDRCGLQELGPGLFRGLAALQYLYLQDNALQALPDDTFRDLGNLTHLFLHGNRISSVPERAFRGLHSLDRLLLHQNRVAHVHPHAFRDLGRLMTLYLFANNLSALPTEALAPLRALQYLRLNDNPWVCDCRARPLWAWLQKFRGSSSEVPCSLPQRLAGRDLKRLAANDLQGCAVATGPYHPIWTGRATDEEPLGLPKCCQPDAADKASVLEPGRPASAGNALKGRVPPGDSPPGNGSGPRHINDSPFGTLPGSAEPPLTAVRPEGSEPPGFPTSGPRRRPGCSRKNRTRSHCRLGQAGSGGGGTGDSEGS
notes: Low-glycosylated fraction of about 80 kDa from CHO-K1 cells; also called soluble His-NogoR; NgR-HIS; not shown: Myc/His tag of vector pcDNA4/MycHIS A
B8: NtermR31 (peptide)
peptide: QNITARIGEPLVLKCKGAPKKPPQRLEWKLN
modifications: also: biotin label in some assays, position not given here
notes: also called Nterm 31; Nterm31

Key:
[1] = biological target: T2, sRAGE-6×HIS (AA 23-352, NP_001127) (human, UniProt Q15109 23-331); experiment: AlphaScreen, biotinylated peptide on streptavidin donor beads, sRAGE-6×HIS 2.5 ng/µl on anti-HIS acceptor beads
T2 construct: range 23-352; Printed as a fusion protein with limits 23-352 on NP_001127; also called human sRAGE-6×HIS; RAGE receptor; not shown: 6×HIS tag
Protocol: The assay was carried out by the manufacturer's protocol in 25 mM HEPES, 100 mM NaCl of pH 7.4 and 0.1% BSA in a volume of 20 μl.
(§1) The individual components were brought together in a defined time sequence. […] The various amounts of peptide were then added in order, after a further 30 minutes, to add the donor beads. After a further 60 minutes, the fluorescence was measured in the AlphaQuest instrument from Perkin-Elmer with a time lag of one second. Each measured point was determined as triplicate. The evaluation and graphical workup of the results took place with the GraphPrism 4.0 software package.

[2] = biological target: T3, Amyloid Aβ-1-42 oligomer (globulomer), biotinylated (UniProt P05067 672-713, biotinylated (1/5 biotin; position not stated)); experiment: HTRF competition: peptide preincubated with Aβ 1/5 biotin globulomer 800 nM, then sRAGE 1-331 added; blocked partner sRAGE
T3 construct: domain: Aβ 1-42; Concentrations are based on Aβ 1-42 monomers; also called Aβ oligomer; Aβ 1-42 oligomers

[3] = biological target: T3, Amyloid Aβ-1-42 oligomer (globulomer), …; experiment: HTRF direct binding: Aβ 1/5 biotin globulomer titrated on His-tagged sRAGE; anti-6HIS cryptate and streptavidin XL-665
Protocol: After addition of 4 μl of a 2M KF stock solution, the complete mixture was measured in the BMG Pherastar fluorescence measuring instrument (BMG Labtech GmbH, Offenburg, Germany) in HTRF mode. For the background curve, measurements were used with in each case only the Anti6HIS cryptates and streptavidin XL solutions. The calculated % DeltaF values were transferred into GraphPad Prism 4 (GraphPad Software, San Diego, USA) and evaluated.

[4] = biological target: T2, sRAGE-6×HIS (AA 23-352, NP_001127); experiment: AlphaScreen, biotinylated peptide and sRAGE-6×HIS
Protocol: The entire homogeneous assay was carried out in 25 mM HEPES, 100 mM NaCl of pH 7.4 and 0.1% BSA in a volume of 20 μl.
as §1, with “analysis” for “evaluation”

[5] = biological target: T1, AP-Nogo66 (Nogo-66 with an N-terminal …); experiment: competition of AP-Nogo66 (0.1 nM) binding to coated His-NogoR
Protocol: (§2) This was followed by a blocking step for 1 hour with 2% strength bovine serum albumin (BSA) in Tris-HCl, pH 7.2, at room temperature. […] These stock solutions were then diluted three-fold.
(§3) After each incubation step, the plates were washed with washing buffer (10 mM Tris-HCl, pH 7.2 and 0.05% Tween20).

His-NogoR fusion protein = biological target: B7; experiment: as above
Protocol: as §2, §3

With B1 the “EC50 (read off the curve)” value [1] was ~50 nM.

For B2, the “IC50 (read off the curve)” value [2] was ~4000 nM.

B3: binds [2].

B4: binds [3].

B5: binds [3].

In the case of B6, the EC50 [4] is reported as 66 nM.

In the case of B7, the IC50 [5] is reported as 2 nM.

For B8, the IC50 (His-NogoR fusion protein) was 50 nM.
